Reference: JP2008515970A

Target: ヒトVEGF (human) (UniProt P15692)
Assay: cell-based or functional assay

Chain of UniProt P15692 (P15692 other isoform, or with tags, fused parts or gaps limits assumed): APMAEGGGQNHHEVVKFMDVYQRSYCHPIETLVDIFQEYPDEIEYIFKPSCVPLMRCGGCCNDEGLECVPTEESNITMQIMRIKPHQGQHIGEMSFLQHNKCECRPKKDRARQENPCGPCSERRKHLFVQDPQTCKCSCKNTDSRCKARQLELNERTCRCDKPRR

EC50 (inhibition of VEGF-dependent HUVE cell proliferation, VEGF 10 ng/ml): 15 ng/mL
Substance: VEGFR1−Fc−IL−1ra (Fc fusion)
